We go through 18 molecules from patent US20220177597A1 (OSSIANIX, published 2022).

Numbering of substitutions follows the chain as printed. Names may count otherwise.

The labels stand for the following.
B1: H7 VNAR-hFc fusion (Fc fusion)
chain: ARVDQTPQTITKEEGESLTINCVLRYNNPALASTSWYRKKSGSTREETISKGGRYVETVNSGSKSFSLRINDLTVEDSGTYRCNVYFFPSFLVDKLQSHDVYGDGTAVTVNA
notes: Bivalent VNAR-Fc, VNAR N-terminal to human IgG1 Fc; Expi293; not shown: human IgG1 Fc (hinge, CH2, CH3) of vector pFUSE-hIgG1e3-Fc2
B2: G3 VNAR-hFc fusion (Fc fusion)
chain: ARVDQTPQTITKETGESLTINCVLRDNNCALSTTYWYRKKSGSTNEENISKGGRYVETVNSGSKSFSLRINDLTVEDSGTYRCKVHFFPSFCNSTSIRSVDVYGGGTVVTVNA
notes: as for B1
B3: A8 VNAR-hFc fusion (Fc fusion)
chain: ARVDQTPQTITKEEGESLTINCVLRRNFQLASTSWYRKKSGSTREETISKGGRYVETVNSGSKSFSLRINDLTVEDSGTYRCNVYGFVEFAKNIVEFIDVYGDGTAVTVNA
notes: as for B1
B4: B12 VNAR-hFc fusion (Fc fusion)
chain: ARVDQTPRSVTKETGESLTINCVLRDASYALGSTCWYRKKSGSTNEESISKGGRYVETVNSGSKSFSLRINDLTVEDGGTYRCGVARGWRTLNYLCDVRTGEWSCVWRAAACGDGTAVTVNA
notes: as for B1
B5: E12A VNAR-hFc fusion (Fc fusion)
chain: ARVDQTPQTIAREEGESVTINCVVRDSNRALASTSWCSEKYVSTREESISKGGRYVETVNSGSKSFSLRINDLTVEDSGTYRCNVYFFPSFEVDVLQTNDVYGDGTAVTVNA
notes: as for B1
B6: F11 VNAR-hFc fusion (Fc fusion)
chain: ARVDQTPQTITKEEGESLTINCVLRGEFYALASTSWYRKKSGSTREETISKGGRYVETVNSGSKSFSLRINDLTVEDSGTYRCNVYGYRIFSPEVKGPNDVYGDGTAVTVNA
notes: as for B1
B7: G10 VNAR-hFc fusion (Fc fusion)
chain: ARVDQTPQTITKETGESLTINCVLRDSNCALSSTYWYRKKSGSTNEENISKGGRYVETVNSGSKSFSLKINDLTVEDSGTYRCKVVFKLFSGRACAGEKDVYGGGTVVTVNA
notes: as for B1
B8: H7A VNAR-hFc fusion (Fc fusion)
chain: PGVDQTEQTIKKEEGESVTIKCVMRVKYPALASTSRYRKKSGSREETISKGGRYVETVNYSSKSISVRINDMTVEDSGRYRCNVYEEYAVDCDALVYQDVYGDGTAVTVNA
notes: as for B1
B9: G12 VNAR-hFc fusion (Fc fusion)
chain: ARVDQTPQTITKETGESLTINCVLRDSNCALSSTYWYRKKSGSTNEALISKGGRYVETVNSGSKSFSLRINDLTVEDSGTYRCNVVQDLRDDCFFRDVYGGGTAVTVNA
notes: as for B1
B10: C6 VNAR-hFc fusion (Fc fusion)
chain: B9 chain with Q87Y
notes: as for B1
B11: H8 VNAR-hFc fusion (Fc fusion)
chain: ARVDQTPQTITKETGESLTINCVLRDSNCALPSTYWYRKKSGSTNEESISKGGRYVETVNSGSKSFSLRINDLVVEDSGTYRCKVGNYCIRLCYDMKFAVDVYGGGTAVTVNA
notes: as for B1
B12: F12 VNAR-hFc fusion (Fc fusion)
chain: ARVDQTPQTITKEEGESLTINCVLRVHGRALASTSWYRKKSGSTREETISKGGRYVETVNSGSKSFSLRINDLTVEDSGTYRCNVYGLSFGDIEGVKKIDVYGDGTAVTVNA
notes: Bivalent VNAR-Fc, VNAR N-terminal to human IgG1 Fc; Expi293; also called F12-hFc; clone F12; not shown: human IgG1 Fc (hinge, CH2, CH3) of vector pFUSE-hIgG1e3-Fc2
B13: H12 VNAR-hFc fusion (Fc fusion)
chain: B12 chain with R29C, G91V
notes: as for B1
B14: F1 VNAR-hFc fusion (Fc fusion)
chain: B12 chain with F90S
notes: Bivalent VNAR-Fc, VNAR N-terminal to human IgG1 Fc; Expi293; also called Fl; not shown: human IgG1 Fc (hinge, CH2, CH3) of vector pFUSE-hIgG1e3-Fc2
B15: E12 VNAR-hFc fusion (Fc fusion)
chain: ARVDQTPQTITKEEGESLTINCVLRTQDPALASTSWYRKKSGSTREETISKGGRYVETVNSGSKSFSLRINDLTVEDSGTYRCNVYFLLAPTKTKLQGIDVYGDGTAVTVNA
notes: as for B1
B16: G6 VNAR-hFc fusion (Fc fusion)
chain: ARVDQTPQTITKEEGESLTINCVLRVETRALASTSWYRKKSGSTREETISKGGRYVETVNSGSKSFSLRINDLTVEDSGTYRCNVYIRHYSEFTQAPFRDVYGDGTAVTVNA
notes: as for B1
B17: D1 VNAR-hFc fusion (Fc fusion)
chain: ARVDQTPQTITKEEGESLTINCVLRHNYSALASTSWYRKKSGSTREETISKGGRYVETVNSGSKSFSLRINDLTVEDSGTYRCNVYGISFIEEKIRYDFDVYGDGTAVTVNA
notes: Bivalent VNAR-Fc, VNAR N-terminal to human IgG1 Fc; Expi293; also called D1-hFc; not shown: human IgG1 Fc (hinge, CH2, CH3) of vector pFUSE-hIgG1e3-Fc2
B18: H6 VNAR-hFc fusion (Fc fusion)
chain: ARVDQTPQTITKEEGESLTINCVLRTHSNALASTSWYRKKSGSTREETISKGGRYVETVNSGSKSFSLRINDLTVEDSGTYRCNVYAFLEIQPNIYHEFDVYGDGTAVTVNA
notes: as for B1

As usually defined, the EC50 is the midpoint of the concentration-response curve.

For one experiment, the target named is T1, human serum albumin (human, UniProt P02768 25-609).
T1 construct: Negative control antigen in ELISA; also called HSA
T1 sequence (P02768 25-609 limits assumed): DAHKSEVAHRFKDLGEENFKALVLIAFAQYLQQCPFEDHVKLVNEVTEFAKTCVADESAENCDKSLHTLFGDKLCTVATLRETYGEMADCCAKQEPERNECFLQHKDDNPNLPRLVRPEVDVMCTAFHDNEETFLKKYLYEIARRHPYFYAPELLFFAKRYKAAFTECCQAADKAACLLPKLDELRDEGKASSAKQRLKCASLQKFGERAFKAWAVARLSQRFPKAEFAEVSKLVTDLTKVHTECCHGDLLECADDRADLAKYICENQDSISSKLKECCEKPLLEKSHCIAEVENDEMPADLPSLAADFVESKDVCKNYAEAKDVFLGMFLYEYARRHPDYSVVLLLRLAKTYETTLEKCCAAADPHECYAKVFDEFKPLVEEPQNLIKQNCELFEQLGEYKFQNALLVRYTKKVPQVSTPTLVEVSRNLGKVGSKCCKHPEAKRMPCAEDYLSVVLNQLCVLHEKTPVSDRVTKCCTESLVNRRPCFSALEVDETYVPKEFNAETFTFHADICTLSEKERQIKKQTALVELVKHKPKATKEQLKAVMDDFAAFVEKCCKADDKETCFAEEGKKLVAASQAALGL
In words: ELISA, VNAR-hFc in Expi293 medium on coated HSA (negative control). An excerpt:
The clones were reformatted as bivalent VNAR-Fc by cloning the VNARs into the commercial pFUSE vector (pFUSE-hIgG1e3-Fc2). The Fc region of the protein contained CH2 and CH3 domains with the hinge that served as a flexible spacer between the two parts of the Fc-fusion protein. N-termini of the construct contained the IL2 signal sequence to allow secretion. A HEK Expi293 expression system was used to transiently express the proteins. The VNAR clones were expressed as Fc formats in mammalian cells in small (1 ml) scale in 96-well plates. Media was collected and used directly for ELISA in order to confirm binding to the ectodomain of mouse and human CD98hc. Human serum albumin was used as the negative control.
For orientation: In an ELISA, binding on a coated surface is turned into a signal by an enzyme label.
As to B1, the “Binding [relative units]” value was determined as 0.072 relative units.

For B2, the “Binding [relative units]” value turned out to be 0.053 relative units.

As for B3, the “Binding [relative units]” value worked out at 0.065 relative units.

For B4, the “Binding [relative units]” value was 0.081 relative units.

In the case of B5, the “Binding [relative units]” value is 0.063 relative units.

Consider B6, for which the “Binding [relative units]” value is 0.072 relative units.

On to B7, for which the “Binding [relative units]” value turned out to be 0.051 relative units.

As to B8, the “Binding [relative units]” value worked out at 0.054 relative units.

On to B9, for which the “Binding [relative units]” value is 0.054 relative units.

Consider B10, for which the “Binding [relative units]” value was 0.052 relative units.

With B11, the “Binding [relative units]” value is 0.059 relative units.

B12: the “Binding [relative units]” value came out at 0.112 relative units.

Regarding B13, the “Binding [relative units]” value worked out at 0.055 relative units.

With B14, the “Binding [relative units]” value came to 0.073 relative units.

Regarding B15, the “Binding [relative units]” value was determined as 0.056 relative units.

For B16, the “Binding [relative units]” value worked out at 0.052 relative units.

B17: the “Binding [relative units]” value came to 0.074 relative units.

Take B18: the “Binding [relative units]” value was determined as 0.06 relative units.

The target of the next experiment is human CD98hc ectodomain (recombinant) (human) (UniProt P08195). In words: ELISA, purified VNAR-Fc titrated on plate-coated CD98hc (1 ug/mL).
Sequence of human CD98hc ectodomain (recombinant) (human) (P08195 206-630): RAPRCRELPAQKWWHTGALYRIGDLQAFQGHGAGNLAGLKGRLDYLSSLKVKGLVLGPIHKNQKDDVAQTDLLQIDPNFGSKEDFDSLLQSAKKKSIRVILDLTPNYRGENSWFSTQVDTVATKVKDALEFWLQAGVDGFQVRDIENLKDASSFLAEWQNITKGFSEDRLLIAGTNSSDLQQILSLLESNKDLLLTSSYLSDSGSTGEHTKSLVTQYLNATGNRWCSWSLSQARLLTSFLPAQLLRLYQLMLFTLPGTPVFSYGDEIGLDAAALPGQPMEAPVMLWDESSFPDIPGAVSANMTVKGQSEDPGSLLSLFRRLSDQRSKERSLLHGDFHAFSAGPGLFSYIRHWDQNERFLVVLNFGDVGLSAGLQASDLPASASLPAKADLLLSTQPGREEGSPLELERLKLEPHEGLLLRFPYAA
B1: the EC50 was 6 nM.

As for B2, the concentration giving a half-maximal response (EC50) turned out to be 107 nM.

For the molecule B12, the EC50 is 12 nM.

Regarding B14, the EC50 is 3 nM.

B15: the EC50 turned out to be 56 nM.

As for B17, the EC50 was determined as 28 nM.

As for B18, the concentration giving a half-maximal response (EC50) was 6 nM.

Another experiment has as its target mouse CD98hc ectodomain (recombinant) (mouse) (UniProt P10852). Described as above.
On to B1, for which the EC50 worked out at 504 nM.

As to B12, the EC50 is 72 nM.

Regarding B14, the EC50 came out at 3860 nM.

As for B15, the EC50 stood at 819 nM.

For the molecule B17, the 50% effective concentration (EC50) is 190 nM.

For the molecule B18, the EC50 stood at 86 nM.

In another experiment the target is human CD98hc ectodomain (recombinant) (human) (UniProt P08195). The experiment can be described thus: ELISA, VNAR-hFc in Expi293 medium on coated ectodomain.
Take B1: the Binding [relative units] (relative units) is 3.93.

With B2, the Binding [relative units] (relative units) worked out at 1.48.

For B3, the Binding [relative units] (relative units) turned out to be 2.97.

Take B4: the Binding [relative units] (relative units) came out at 0.076.

For B5, the Binding [relative units] (relative units) stood at 0.049.

For the molecule B6, the Binding [relative units] (relative units) stood at 3.03.

B7: the Binding [relative units] (relative units) amounted to 0.043.

As for B8, the Binding [relative units] (relative units) is 0.043.

As for B9, the Binding [relative units] (relative units) was 0.044.

As to B10, the Binding [relative units] (relative units) was 0.041.

As for B11, the Binding [relative units] (relative units) stood at 0.048.

Take B12: the Binding [relative units] (relative units) came out at 3.99.

In the case of B13, the Binding [relative units] (relative units) worked out at 0.046.

B14: the Binding [relative units] (relative units) came to 3.76.

For the molecule B15, the Binding [relative units] (relative units) came to 2.19.

B16: the Binding [relative units] (relative units) was found to be 0.042.

For the molecule B17, the Binding [relative units] (relative units) amounted to 3.5.

In the case of B18, the Binding [relative units] (relative units) was determined as 3.31.

The target of the next experiment is mouse CD98hc ectodomain (recombinant) (mouse) (UniProt P10852). The description is as above.
Sequence of mouse CD98hc ectodomain (recombinant) (mouse) (P10852 100-526): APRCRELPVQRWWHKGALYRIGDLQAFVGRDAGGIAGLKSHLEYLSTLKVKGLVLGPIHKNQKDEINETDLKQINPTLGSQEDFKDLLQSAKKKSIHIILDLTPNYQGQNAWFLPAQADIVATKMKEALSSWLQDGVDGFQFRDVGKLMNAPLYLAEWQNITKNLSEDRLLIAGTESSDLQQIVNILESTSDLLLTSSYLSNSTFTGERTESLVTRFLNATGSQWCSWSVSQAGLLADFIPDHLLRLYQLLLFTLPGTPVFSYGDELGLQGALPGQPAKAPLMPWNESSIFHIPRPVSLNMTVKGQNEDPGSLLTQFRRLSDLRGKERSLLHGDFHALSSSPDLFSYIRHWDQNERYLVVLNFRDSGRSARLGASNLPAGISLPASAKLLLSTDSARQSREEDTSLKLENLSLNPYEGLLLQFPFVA
Regarding B1, the Binding [relative units] (relative units) came out at 0.108.

As for B2, the Binding [relative units] (relative units) was 0.041.

Turning to B3, the Binding [relative units] (relative units) was found to be 0.135.

As to B4, the Binding [relative units] (relative units) was 0.084.

Turning to B5, the Binding [relative units] (relative units) worked out at 0.065.

Regarding B6, the Binding [relative units] (relative units) was determined as 0.096.

In the case of B7, the Binding [relative units] (relative units) is 0.041.

For B8, the Binding [relative units] (relative units) amounted to 0.043.

Take B9: the Binding [relative units] (relative units) stood at 0.044.

With B10, the Binding [relative units] (relative units) came to 0.042.

With B11, the Binding [relative units] (relative units) was 0.049.

For the molecule B12, the Binding [relative units] (relative units) was determined as 0.563.

Take B13: the Binding [relative units] (relative units) is 0.045.

As to B14, the Binding [relative units] (relative units) worked out at 0.115.

B15: the Binding [relative units] (relative units) came to 0.078.

For the molecule B16, the Binding [relative units] (relative units) amounted to 0.041.

On to B17, for which the Binding [relative units] (relative units) was 0.417.

B18: the Binding [relative units] (relative units) turned out to be 0.186.
